Target: microtubules polymerised from bovine brain tubulin (bovine) (UniProt Q6B856)
Assay: TIRF microscopy of binding to immobilised microtubules

- reduction in MT binding against wildtype augmin: 50%
Substance: augmin octamer lacking the N-terminal CH domain of Haus6 (residues 1-160) (from UniProt Q6DCY9;Q0IHJ3) (complex)

Source: PMC12578939
